Source: patent US7094548B2, “Purification of recombinant proteins fused to multiple epitopes” (Sigma-Aldrich Co., priority 1999, dated 2006)

Legend:
[1] = biological target: 3XFLAG-BAP (bacterial alkaline phosphatase with the triple FLAG sequence at the N-terminus) (E. coli) [phosphatase: P00634]; assay: ELISA
[2] = biological target: 3XFLAG-BAP (bacterial alkaline phosphatase with the triple FLAG sequence at the N-terminus) (E. coli) [phosphatase: P00634]; assay: dot blot
[3] = biological target: 3XFLAG-BAP (bacterial alkaline phosphatase with the triple FLAG sequence at the N-terminus) (E. coli) [phosphatase: P00634]; assay: western blot, M2 at 10 ug/ml, chemiluminescence, longer exposure
[4] = biological target: 3XFLAG-BAP (bacterial alkaline phosphatase with the triple FLAG sequence at the N-terminus) (E. coli) [phosphatase: P00634]; assay: western blot, M2 at 10 ug/ml, chemiluminescence
FLAG M2 antibody = assay: Isothermal titration calorimetry of M2 antibody binding to FLAG epitopes; conditions: 25° C., PBS containing 0.05% sodium azide, for 3XFLAG system r>1000, accurate Ka can not be determined, in M-1 (unit assumed)
Experimental: Thermodynamic analysis of the M2 antibody binding to the FLAG epitopes was measured by isothermal titration calorimetry using an OMEGA calorimeter (Microcal). All samples were dialyzed against PBS containing 0.05% sodium azide and degassed prior to the measurements. All measurements were made at 25° C. The concentration of M2 antibody was between 15 and 50 uM depending upon which samples were used. The concentration of the titrants were 605 uM for the 1X BAP, 1110 uM for the 1X FLAG peptide, 400 uM for the 3X BAP, and 580 uM for the 3XFLAG peptide. Injections were carried out every 2.5 to 3.0 minutes which was sufficient for baseline to be achieved with injection volumes ranging from 4 to 11 uL. Injections were carried out over a 4 to 10 second period while stirring at 400 rpm. Data analysis and fitting were performed using the Origin software supplied by MicroCal. The enthalpies were obtained by numerical integration of the data and subtraction of the heats of dilution. Values of Ka, n the number of binding sites were determined by fitting the data to a theoretical curve with only the enthalpy was held constant during the fitting process.

[5] = test system: anti-FLAG M2 affinity gel; assay: Competitive elution from anti-FLAG M2 affinity gel; type: binding; conditions: for competitive elution from anti-FLAG M2 affinity gel using 3XFLAG peptide: competitor: 3XFLAG peptide
M2 antiFLAG antibody = assay: Western blot of purified FLAG-BAP probed with M2 anti-FLAG antibody, chemiluminescent detection; type: binding
Experimental: E. coli BL21 (DE3) were transformed with the expression plasmid containing the triple FLAG BAP construct made according to the methods of Example 1. Cells were grown in terrific broth containing 100 μg/ml ampicillin at 37° C. with agitation. The culture was grown to an OD600=4.0 and then induced with IPTG at a final concentration of 1 mM. The cell culture was grown for an additional 3 hours at 37° C. and then harvested by centrifugation. The cell pellet was resuspended in 50 mM Tris-HCl. pH 8.0 and the cells disrupted by sonication and cellular debris removed by centrifugation. The supernatant was applied to M2 affinity gel was equilibrated with 50 mM Tris-HCI pH 8.0, 150 mM NaCl (TBS). The resin was washed with 20 bed volumes of TBS and then the triple FLAG BAP was eluted with five column volumes of 0.1 M Glycine pH 3.5.
The eluted protein was pooled and adjusted to pH 7.5 with 1.0 M Tris-HCl pH 8.0. Protein content was determined by both Bradford and by absorbance using ε280=0.7ml/mg.
Purified 3XFLAG-BAP and N-BAP were diluted with to 2X Laemlli buffer, boiled for five minutes and then placed on ice. Samples were resolved on a 15% SDS-PAGE using the method of Laemlli (Laemli, V., Nature, 227:680–685 (1970)) and then transferred to nitrocellulose membranes. The membrane was blocked with phosphate buffered saline containing 3% non-fat dry milk for 1 hour and then rinsed three times in TBS, 0.05% Tween 20 (TBS-T). The membrane was incubated with M2 antibody at a final concentration of 10 μg/ml for 30 minutes in TBS-T and then rinsed three times in TBS-T. The membrane was then incubated for 30 minutes with a goat […] IgG (whole molecule) Horseradish peroxidase(HRP) conjugate diluted 1:10,000 in TBS-T then rinsed three times in TBS-T. The FLAG tagged protein were detected with the HRP conjugates and visualized by chemilumenescent detection using ECL (Amersham) and Kodak X-Omat MR film according to manufacturer's directions with exposures from 1 to 30 minutes.

Molecule | fold increase in detection against single FLAG [1] [fold] | fold increase in detection against single FLAG [2] [fold] | amount detected [3] [picograms] | amount detected [4] [picograms] | fold increase in detection limit against single FLAG-BAP [4] [fold] | Ka (association constant) (FLAG M2 antibody) | competitive elution from anti-FLAG M2 affinity gel using 3XFLAG peptide [5] | elution from anti-FLAG M2 affinity gel by competition with the original FLAG peptide ([5]; competitor: original FLAG peptide) | amount of purified protein detected (M2 antiFLAG antibody; exposures as short as 1 minute) [picograms] | amount of purified protein detected (M2 antiFLAG antibody; increased exposure time, with increased background) [picograms] | increase in detection limit compared to the single FLAG-BAP fusion protein (M2 antiFLAG antibody; western blot, M2 antibody, chemiluminescence) [fold]
anti-FLAG M2 monoclonal antibody | > 10 | > 10 | 100 | 500 | 10 |  |  |  |  |  | 
3XBAP: triple FLAG version of bacterial alkaline phosphatase expressed in E. coli from p3XFLAG-ATS-BAP and purified on M2 affinity gel (protein) MDYKDHDGDYKDHDIDYKDDDDKMPVLENRAAQGDITAPGGARRLTGDQTAALRDSLSDKPAKNIILLIGDGMGDSEITAARNYAEGAGGFFKGIDALPLTGQYTHYALNKKTGKPDYVTDSAASATAWSTGVKTYNGALGVDIHEKDHPTILEMAKAAGLATGNVSTAELQDATPAALVAHVTSRKCYGPSATSEKCPGNALEKGGKGSITEQLLNARADVTLGGGAKTFAETATAGEWQGKTLREQAQARGYQLVSDAASLNSVTEANQQKPLLGLFADGNMPVRWLGPKATYHGNIDKPAVTCTPNPQRNDSVPTLAQMTDKAIELLSKNEKGFFLQVEGASIDKQDHAANPCGQIGETVDLDEAVQRALEFAKKEGNTLVIVTADHAHASQIVAPDTKAPGLTQALNTKDGAVMVMSYGNSEEDSQEHTGSQLRIAAYGPHAANVVGLTDQTDLFYTMKAALGLK |  |  |  |  |  | 2.09E+08 | can be competitively eluted | cannot be eluted | 500 | 100 | 10
1XBAP: bacterial alkaline phosphatase fusion protein containing the traditional FLAG epitope (DYKDDDDK), expressed in E. coli and purified (protein) DYKDDDDKMPVLENRAAQGDITAPGGARRLTGDQTAALRDSLSDKPAKNIILLIGDGMGDSEITAARNYAEGAGGFFKGIDALPLTGQYTHYALNKKTGKPDYVTDSAASATAWSTGVKTYNGALGVDIHEKDHPTILEMAKAAGLATGNVSTAELQDATPAALVAHVTSRKCYGPSATSEKCPGNALEKGGKGSITEQLLNARADVTLGGGAKTFAETATAGEWQGKTLREQAQARGYQLVSDAASLNSVTEANQQKPLLGLFADGNMPVRWLGPKATYHGNIDKPAVTCTPNPQRNDSVPTLAQMTDKAIELLSKNEKGFFLQVEGASIDKQDHAANPCGQIGETVDLDEAVQRALEFAKKEGNTLVIVTADHAHASQIVAPDTKAPGLTQALNTKDGAVMVMSYGNSEEDSQEHTGSQLRIAAYGPHAANVVGLTDQTDLFYTMKAALGLK |  |  |  |  |  | 1.69E+07 | can be competitively eluted |  |  |  | 
